Where two headings read alike, the source gives them in different places.
Tests used:
[1] = biological target: FLAG-tagged BicD2-Kif1bα tail fusion (mouse) (UniProt Q60575); assay: centrosome recruitment assay with BicD2-kinesin tail fusions (relocalisation in cells, microscopy); N2A cells transfected with FLAG-BicD2-KIF tail fusion and EGFP-tagged RBP (2:3), fixed after 24 h, anti-FLAG staining; read-out log2 of the mean EGFP intensity at the centrosome over the mean intensity in the whole cell
Chain of FLAG-tagged BicD2-Kif1bα tail fusion (mouse) (Q60575 other isoform, or with tags, fused parts or gaps): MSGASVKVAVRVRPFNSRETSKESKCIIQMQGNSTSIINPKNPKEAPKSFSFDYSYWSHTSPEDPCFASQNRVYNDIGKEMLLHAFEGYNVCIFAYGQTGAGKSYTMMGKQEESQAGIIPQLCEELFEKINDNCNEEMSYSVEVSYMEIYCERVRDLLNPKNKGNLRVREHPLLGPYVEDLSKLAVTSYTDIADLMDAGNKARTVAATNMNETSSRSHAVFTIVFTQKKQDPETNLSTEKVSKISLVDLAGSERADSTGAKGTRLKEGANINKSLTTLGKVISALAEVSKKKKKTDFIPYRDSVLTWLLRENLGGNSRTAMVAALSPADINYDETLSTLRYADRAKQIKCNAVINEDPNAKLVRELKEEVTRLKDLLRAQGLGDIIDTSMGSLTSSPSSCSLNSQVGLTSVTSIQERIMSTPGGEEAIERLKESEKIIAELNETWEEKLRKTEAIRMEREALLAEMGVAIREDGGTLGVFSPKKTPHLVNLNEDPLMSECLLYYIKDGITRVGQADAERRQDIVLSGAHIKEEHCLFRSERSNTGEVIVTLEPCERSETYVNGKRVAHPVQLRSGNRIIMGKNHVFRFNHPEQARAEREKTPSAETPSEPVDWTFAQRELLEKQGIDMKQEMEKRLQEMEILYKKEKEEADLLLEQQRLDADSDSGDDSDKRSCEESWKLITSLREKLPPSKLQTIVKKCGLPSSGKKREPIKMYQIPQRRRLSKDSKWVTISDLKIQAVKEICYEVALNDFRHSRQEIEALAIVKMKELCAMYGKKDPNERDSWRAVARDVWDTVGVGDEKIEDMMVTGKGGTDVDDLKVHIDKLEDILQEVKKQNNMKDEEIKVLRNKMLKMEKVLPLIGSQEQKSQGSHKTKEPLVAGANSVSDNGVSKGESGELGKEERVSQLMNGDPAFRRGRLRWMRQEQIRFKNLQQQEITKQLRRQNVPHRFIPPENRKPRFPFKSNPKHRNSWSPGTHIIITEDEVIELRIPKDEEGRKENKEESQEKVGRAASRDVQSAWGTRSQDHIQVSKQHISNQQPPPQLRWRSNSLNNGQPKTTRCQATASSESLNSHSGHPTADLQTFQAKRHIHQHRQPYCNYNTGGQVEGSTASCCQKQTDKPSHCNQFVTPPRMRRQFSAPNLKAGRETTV

[2] = biological target: FLAG-tagged BicD2-Kif1c tail fusion (mouse) (UniProt O35071); assay: as above
Chain of FLAG-tagged BicD2-Kif1c tail fusion (mouse) (O35071 whole entry, the tested form may be a part): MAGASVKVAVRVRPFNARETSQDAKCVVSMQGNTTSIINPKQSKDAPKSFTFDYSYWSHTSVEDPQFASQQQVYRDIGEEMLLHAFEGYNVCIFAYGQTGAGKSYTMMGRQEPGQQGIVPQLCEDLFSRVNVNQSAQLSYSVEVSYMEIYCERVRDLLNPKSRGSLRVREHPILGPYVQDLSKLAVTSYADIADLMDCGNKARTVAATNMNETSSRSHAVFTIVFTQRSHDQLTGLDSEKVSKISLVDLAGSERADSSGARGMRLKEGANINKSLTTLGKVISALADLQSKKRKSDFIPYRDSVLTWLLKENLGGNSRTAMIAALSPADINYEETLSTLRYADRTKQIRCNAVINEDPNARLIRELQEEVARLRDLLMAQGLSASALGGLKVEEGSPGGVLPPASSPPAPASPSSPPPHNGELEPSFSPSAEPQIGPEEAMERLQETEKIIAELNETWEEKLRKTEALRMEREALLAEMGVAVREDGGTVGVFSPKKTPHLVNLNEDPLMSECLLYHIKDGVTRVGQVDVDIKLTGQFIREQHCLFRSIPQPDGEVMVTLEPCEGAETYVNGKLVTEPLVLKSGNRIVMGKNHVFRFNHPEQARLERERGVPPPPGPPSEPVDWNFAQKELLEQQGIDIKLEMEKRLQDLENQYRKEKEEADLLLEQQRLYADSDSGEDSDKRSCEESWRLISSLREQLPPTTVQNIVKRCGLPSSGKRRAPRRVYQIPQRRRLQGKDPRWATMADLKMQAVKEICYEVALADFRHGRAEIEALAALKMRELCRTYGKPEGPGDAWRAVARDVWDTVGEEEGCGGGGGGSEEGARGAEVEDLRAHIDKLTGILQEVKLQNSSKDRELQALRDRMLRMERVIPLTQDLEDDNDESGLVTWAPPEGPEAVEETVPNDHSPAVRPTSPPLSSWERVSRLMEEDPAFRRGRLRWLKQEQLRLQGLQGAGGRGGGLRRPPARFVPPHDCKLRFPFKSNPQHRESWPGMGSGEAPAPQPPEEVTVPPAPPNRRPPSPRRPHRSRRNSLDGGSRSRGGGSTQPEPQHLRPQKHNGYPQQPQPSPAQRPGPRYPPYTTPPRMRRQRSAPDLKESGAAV

[3] = biological target: mScarlet-I-Kif1c (full-length kinesin) (mouse) (UniProt O35071); assay: co-IP; N2A cells 48 h after co-transfection of EGFP-MBNL1-41 and mScarlet-Kif plasmids; lysis in 10 mM Tris-HCl pH 7.5, 150 mM NaCl, 0.5 mM EDTA, 0.5% NP-40; RFP-Trap magnetic agarose 1 h at 4 °C; western blot, quantitation normalized to input
Chain of mScarlet-I-Kif1c (full-length kinesin) (mouse) (O35071 whole entry): as the sequence (O35071 whole entry, the tested form may be a part) above

[4] = biological target: mScarlet-I-Kif1bα (full-length kinesin) (mouse) (UniProt Q60575); assay: as above
Chain of mScarlet-I-Kif1bα (full-length kinesin) (mouse) (Q60575 other isoform, or with tags, fused parts or gaps): as the sequence (Q60575 other isoform, or with tags, fused parts or gaps) above

[5] = biological target: FLAG-tagged BicD2-Kif1c tail fusion (mouse) (UniProt O35071); assay: centrosome recruitment assay with BicD2-kinesin tail fusions (relocalisation in cells, microscopy); N2A cells transfected with FLAG-BicD2-KIF tail fusion and EGFP-tagged RBP (2:3), fixed after 24 h, anti-FLAG staining; read-out log2 of the mean EGFP intensity at the centrosome over the mean intensity in the whole cell; remark: listed apart in the source

Chain of EGFP-MBNL1-41 (41 kDa isoform of MBNL1) (natural protein) (Q9NR56 whole entry, canonical isoform): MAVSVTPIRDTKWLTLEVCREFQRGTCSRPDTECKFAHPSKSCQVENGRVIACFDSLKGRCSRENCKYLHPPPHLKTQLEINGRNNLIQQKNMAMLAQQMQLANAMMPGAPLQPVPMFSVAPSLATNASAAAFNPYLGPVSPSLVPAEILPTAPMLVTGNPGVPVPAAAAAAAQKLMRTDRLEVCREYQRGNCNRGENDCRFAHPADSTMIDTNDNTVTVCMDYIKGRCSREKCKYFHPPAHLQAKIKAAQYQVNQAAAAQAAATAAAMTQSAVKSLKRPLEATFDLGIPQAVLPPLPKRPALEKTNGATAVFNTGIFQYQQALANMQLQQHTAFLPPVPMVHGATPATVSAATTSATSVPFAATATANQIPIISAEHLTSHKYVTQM
Chain of EGFP-Cpsf4 (Q8BQZ5 whole entry): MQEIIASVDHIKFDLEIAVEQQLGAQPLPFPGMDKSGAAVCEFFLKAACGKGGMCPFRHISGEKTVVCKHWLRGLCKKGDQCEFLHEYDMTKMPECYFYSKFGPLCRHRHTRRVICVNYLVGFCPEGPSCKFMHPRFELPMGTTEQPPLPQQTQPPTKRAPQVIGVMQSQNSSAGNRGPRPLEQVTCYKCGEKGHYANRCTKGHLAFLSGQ

| log2 mean centrosome recruitment [1] | log2 mean centrosome recruitment [2] | log2 mean centrosome enrichment [1] | log2 mean centrosome enrichment [2] | fold enrichment of co-precipitated EGFP-MBNL1 as compared to Kif1bβ [3] | fold enrichment of co-precipitated EGFP-MBNL1 as compared to Kif1bβ [4] | log2 mean centrosome enrichment [5] | Substance |
| --- | --- | --- | --- | --- | --- | --- | --- |
| 1.71 log2 | 1.52 log2 |  |  |  |  |  | EGFP-Cpsf4 (from UniProt Q8BQZ5 1-211) (natural protein) |
|  |  | 0.506 log2 | 0.56 log2 | 10 fold | 10 fold | 0.497 log2 | EGFP-MBNL1-41 (41 kDa isoform of MBNL1) (natural protein) |
